B1: scFv; the commonest letter at each place (parent)
chain 1: EVKLDETGGGLVQPGRPMKLSCVASGFTFSDYWMNWVRQSPEKGLEWVAQIRNKPYNYETYYSDSVKGRFTISRDDSKSSVYLQMNNLRVEDMGIYYCTGSYYGMDYWGQGTSVTVS
chain 2: DVVMTQTPLSLPVSLGDQASISCRSSQSLVHSNGNTYLRWYLQKPGQSPKVLIYKVSNRFSGVPDRFSGSGSGTDFTLKISRVEAEDLGVYFCSQSTHVPWTFGGGTKLEIK

The variants in the data set “fluorescein” derive from B1. Nature of the data set: Kd (Tite-Seq). The conditions noted are these: with fluorescein; format: scFv 4-4-20, heavy + light.
In data set [1] the parent is B1. The data set is described as follows: yeast surface expression (ratio to wild type); higher = more expressed. The settings on record: format: scFv 4-4-20, heavy + light.

chain 1 G100H D106F: the Kd (usually the free concentration of one partner at which half of the binding sites on the other are occupied at equilibrium, for simple one-to-one binding) in the data set with fluorescein was found to be 9.5 µM. Also, the yeast surface expression in data set [1] came out at 0.752.
For the variant chain 1 D31M Y32S, in the data set with fluorescein, the Kd is no less than 10 µM. Also, the yeast surface expression in data set [1] worked out at 0.804.
For chain 1 S101V M105H, in that order: no less than 10 µM and 0.496.
For chain 1 D31H N35A W36R, in that order: no less than 10 µM and 2.27.
For chain 1 F29E N35I, in that order: 0.00672 µM and 0.276.
As for chain 1 D106W Y107L, in the data set with fluorescein, the Kd is no less than 10 µM. The yeast surface expression in data set [1] worked out at 0.308.
For the variant chain 1 D106W Y107I, the Kd with fluorescein is no less than 10 µM. Besides, the yeast surface expression in data set [1] was determined as 0.31.
The like results for chain 1 T28N W36K were, in that order, no less than 10 µM and 0.56.
The like results for chain 1 T28D were, in that order, 0.00184 µM and 1.15.
Consider chain 1 S101D Y107I, for which the Kd in the data set with fluorescein was no less than 10 µM. For the same variant, the yeast surface expression in data set [1] stood at 1.02.
For chain 1 F29A Y32N, in that order: no less than 10 µM and 0.832.
Consider chain 1 Y102F W108T, for which, in the data set with fluorescein, the Kd was determined as 0.000479 µM. In addition, the yeast surface expression in data set [1] turned out to be 0.854.
Regarding chain 1 Y103C G104H, in the data set with fluorescein, the Kd came to 2.01 µM. Moreover, the yeast surface expression in data set [1] stood at 0.403.
For chain 1 G100R Y103I, in that order: no less than 10 µM and 0.418.
The like results for chain 1 M34P N35D were, in that order, no less than 10 µM and 0.873.
For chain 1 F29H W36Q, in that order: no less than 10 µM and 0.693.
Regarding chain 1 S101N W108D, the Kd in the data set with fluorescein is no less than 10 µM. Further, the yeast surface expression in data set [1] stood at 0.399.
The like results for chain 1 D106K were, in that order, no less than 10 µM and 0.415.
The like results for chain 1 S30F M34E were, in that order, no more than 0.000316 µM and 0.0981.
chain 1 Y32Q W33N: the equilibrium dissociation constant (Kd) with fluorescein was no less than 10 µM. Also, in data set [1], the yeast surface expression came out at 0.726.
Consider chain 1 D31G M34C N35L, for which the Kd in the data set with fluorescein is no less than 10 µM. In data set [1], the yeast surface expression stood at 0.825.
Consider chain 1 D31H Y32S, for which the dissociation constant (Kd) with fluorescein amounted to 8.56 µM. Further, the yeast surface expression in data set [1] was determined as 0.802.
chain 1 F29N: the Kd with fluorescein is 5.24 µM. Also, the yeast surface expression in data set [1] came to 1.04.
As for chain 1 G104W G109R, in the data set with fluorescein, the Kd was no less than 10 µM. Further, in data set [1], the yeast surface expression turned out to be 0.171.
For chain 1 S101C G109N, in that order: no less than 10 µM and 0.251.
In the case of chain 1 Y102C D106L, the Kd with fluorescein was no less than 10 µM. The yeast surface expression in data set [1] came to 0.306.
For the variant chain 1 W33M, the Kd with fluorescein was no less than 10 µM. In data set [1], the yeast surface expression was determined as 0.887.
The like results for chain 1 T28R S30F were, in that order, no more than 0.000316 µM and 0.739.
As to chain 1 N35K V37M, in the data set with fluorescein, the Kd is no less than 10 µM. Also, in data set [1], the yeast surface expression worked out at 0.48.
The like results for chain 1 S101E were, in that order, no less than 10 µM and 0.838.
Regarding chain 1 D31S Y32G, the Kd with fluorescein was 0.24 µM. The yeast surface expression in data set [1] turned out to be 0.78.
As to chain 1 D31Q V37P, the dissociation constant Kd with fluorescein is 0.00827 µM. Besides, in data set [1], the yeast surface expression worked out at 0.0981.
chain 1 D31P M34V: the Kd with fluorescein was no less than 10 µM. Moreover, in data set [1], the yeast surface expression is 0.733.
The like results for chain 1 W33N N35M were, in that order, no less than 10 µM and 0.792.
Regarding chain 1 Y32H W36F, the Kd with fluorescein was 0.676 µM. In addition, the yeast surface expression in data set [1] was found to be 0.839.
The like results for chain 1 G104M Y107H were, in that order, no less than 10 µM and 0.555.
The like results for chain 1 Y102H Y107K were, in that order, no less than 10 µM and 1.05.
For the variant chain 1 Y107L G109R, the Kd in the data set with fluorescein is no less than 10 µM. Moreover, the yeast surface expression in data set [1] was found to be 0.343.
For chain 1 W33N V37Q, in that order: no less than 10 µM and 0.415.
For chain 1 D31A V37K, in that order: 0.382 µM and 0.623.
For chain 1 Y107G W108L G109E, in that order: no less than 10 µM and 0.331.
In the case of chain 1 N35H V37Y, the dissociation constant Kd with fluorescein is no less than 10 µM. Also, in data set [1], the yeast surface expression amounted to 0.779.
The like results for chain 1 F29Y N35A were, in that order, no less than 10 µM and 0.842.
For chain 1 D106C W108K, in that order: no less than 10 µM and 0.314.
With chain 1 F29I Y32G, the Kd in the data set with fluorescein was no less than 10 µM. Moreover, the yeast surface expression in data set [1] worked out at 1.08.
The like results for chain 1 D106I W108R were, in that order, no less than 10 µM and 0.422.
As for chain 1 T28A N35Y W36V, the Kd with fluorescein was no less than 10 µM. Further, the yeast surface expression in data set [1] came out at 0.297.
Turning to chain 1 T28D V37Q, in the data set with fluorescein, the Kd came to 0.000804 µM. The yeast surface expression in data set [1] is 0.726.
The like results for chain 1 W108A were, in that order, 0.00209 µM and 0.588.
For chain 1 G100Q S101Q, in that order: no less than 10 µM and 0.263.
The like results for chain 1 T28P F29V were, in that order, 0.00708 µM and 0.927.
chain 1 D31P Y32K: the Kd in the data set with fluorescein was no less than 10 µM. Also, the yeast surface expression in data set [1] amounted to 0.708.

Source of the values: the FLAb antibody collection (doi:10.7554/elife.23156).
